Source: patent publication US20190284262A1 (Memorial Sloan Kettering, published 2019)
Like-named read-outs stand apart in the source and are kept apart here.

What was measured:
[1] = biological target: T1, T2+EW (Homo sapiens, UniProt A*02:01); test: flow cytometry, phage on T2 + EW peptide; secondary only 113, unstained 94.7
T1 construct: on the surface of T2 cells; irrelevant control peptide; also called EW peptide/HLA-A*02:01 complex on T2 cells; T2 pulsed with EW peptide

[2] = biological target: T2, HLA-A*02:01 on T2 cells alone (no peptide added) (human); test: flow cytometry, phage on T2 without peptide
T2 construct: TAP-deficient T2 cells without pulsed peptide; negative control target, and the HLA molecule whose stabilisation by peptides is read in the T2 stabilization assay; also called HLA-A*02 molecule; HLA-A2 molecule

[3] = biological target: T2, HLA-A*02:01 on T2 cells alone (no …); test: flow cytometry, phage on T2 without peptide; secondary only 100, unstained 99.5
[4] = biological target: T3, Foxp3-7 peptide/HLA-A*02:01 complex on the cell surface (human); test: flow cytometry, phage on T2 + Foxp3-7 peptide; secondary only 133, unstained 103
T3 construct: also called Foxp3-7/HLA-A2 complex

[5] = biological target: T3, Foxp3-7 peptide/HLA-A*02:01 complex on …; test: flow cytometry, phage on T2 + Foxp3-7 peptide; secondary only 104, unstained 81.7
[6] = biological target: T4, 017-mut5 peptide (…)/HLA-A*02:01 complex on T2 cells (human); test: flow cytometry, phage on peptide-loaded T2 cells
T4 construct: Alanine mutant at position 5

[7] = biological target: T5, 017-mut3 peptide (…)/HLA-A*02:01 complex on T2 cells (human); test: flow cytometry, phage on peptide-loaded T2 cells
T5 construct: Alanine mutant at position 3

[8] = biological target: T6, 017-mut4 peptide (…)/HLA-A*02:01 complex on T2 cells (human); test: flow cytometry, phage on peptide-loaded T2 cells
T6 construct: Alanine mutant at position 4

[9] = biological target: T7, 017-mut9 peptide (…)/HLA-A*02:01 complex on T2 cells (human); test: flow cytometry, phage on peptide-loaded T2 cells
T7 construct: Alanine mutant at position 9

[10] = biological target: T8, 017-mut1 peptide (…)/HLA-A*02:01 complex on T2 cells (human); test: flow cytometry, phage on peptide-loaded T2 cells
T8 construct: Alanine mutant of Foxp3-7 at position 1, pulsed onto T2 cells; also called EXT017-mut1

[11] = biological target: T3, Foxp3-7 peptide/HLA-A*02:01 complex on …; test: flow cytometry, phage on peptide-loaded T2 cells
[12] = biological target: T9, 017-mut2 peptide (…)/HLA-A*02:01 complex on T2 cells (human); test: flow cytometry, phage on peptide-loaded T2 cells
T9 construct: Alanine mutant at position 2, the anchor position; the peptide may load poorly onto HLA-A2; also called EXT017-mut2

[13] = biological target: T10, 017-mut8 peptide (…)/HLA-A*02:01 complex on T2 cells (human); test: flow cytometry, phage on peptide-loaded T2 cells
T10 construct: Alanine mutant at position 8; also called TLI-A8

[14] = biological target: T11, 017-mut7 peptide (…)/HLA-A*02:01 complex on T2 cells (human); test: flow cytometry, phage on peptide-loaded T2 cells
T11 construct: Alanine mutant at position 7

[15] = biological target: T2, HLA-A*02:01 on T2 cells alone (no …); test: flow cytometry, phage on T2 cells, no peptide
[16] = biological target: T12, R3 (RHAMM-R3) peptide/HLA-A*02:01 complex on T2 cells (human); test: flow cytometry, phage on T2 + R3 peptide (as the table names the samples); secondary only 109, unstained 80.9
T12 construct: Control target of the phage staining of T2 cells; also called T2 cells pulsed with R3 peptide; RHAMM 3 (R3)

[17] = biological target: T12, R3 (RHAMM-R3) peptide/HLA-A*02:01 …; test: flow cytometry, phage on T2 + R3 peptide; secondary only 118, unstained 91.1
[18] = biological target: T2, HLA-A*02:01 on T2 cells alone (no …); test: flow cytometry, phage on T2 without peptide; secondary only 125, unstained 99.8
[19] = biological target: T2, HLA-A*02:01 on T2 cells alone (no …); test: flow cytometry, phage on T2 without peptide; remark: listed apart in the source

B1: Clone #10 (scFv)
scFv (VL-linker-VH-His/HA tag): QAVLTQPPSASGTPGQRVTISCSGGSSNIGVNPVNWYQQLPGTAPKLLIFANYQRPSGVPDRFSGSKSGTSASLAISGLQSDDEAHYYCSTWDDSLNAWLFGGGTKLTVLGSRGGGGSGGGGSGGGGSLEMAEVQLVQSGAEVKKPGDSLRISCQGSGYSFTSYYISWVRQMPGKGLEWMGNIDPSDSYTNYSPSFQGHVTMSVDKSISTAYLQWSSLKASDIAIYYCVRHGFSNSPRLWFDTWGQGTLVTVSSTSGQAGQHHHHHHGAYPYDVPDYAS
notes: also called EXT017-10; EXT017-10 scFv phage clone
Median:FITC-A [1]: 151
binding result [2]: no binding
Median:FITC-A [3]: 149
Median:FITC-A [4]: 1130

B2: EXT017-20 scFv phage clone (scFv)
scFv: QSVVTQPPSVSAAPGQKVTISCSGSSSNIGAGYDVHWYQQLPGTAPKLLIYGNSNRPSGVPDRFSGSKSGTSASLAITGLQAEDEADYYCQSYDSSLSGSVFGGGTKLTVLGSRGGGGSGGGGSGGGGSLEMAEVQLVQSGAEVKKPGSSVKVSCKASGGTFSSYAISWVRQAPGQGLEWMGGIIPIFGTANYAQKFQGRVTITADESTSTAYMELSSLRSEDTAVYYCARYSYKYGELDTWGQGTLVTVSSTSGQAGQHHHHHHGAYPYDVPDYAS
notes: full-length scFv with His+HA tags; also called EXT017-20 phage
Median:FITC-A [1]: 139
binding result [2]: no binding
Median:FITC-A [3]: 136
Median:FITC-A [4]: 1220
Median:FITC-A [5]: 2300
MFI [6]: 95
MFI [7]: 96.4
MFI [8]: 93.7
MFI [9]: 95.6
MFI [10]: 4070
MFI [11]: 17100
MFI [12]: 96
MFI [13]: 11100
MFI [14]: 94.9
MFI [15]: 91.3
Median:FITC-A [16]: 128

B3: Clone #5 (scFv)
scFv (VL-linker-VH-His/HA tag): QSALTQPPSASGSPGQSVTISCTGTSSDVGGYNYVSWYQQHPGKAPKLMIYEVSKRPSGVPDRFSGSKSGNTASLTVSGLQAEDEADYYCSSYAGSNTHVVFGGGTKLTVLGSRGGGGSGGGGSGGGGSLEMAEVQLVQSGAEVKKPGASVKISCKASRYTFTNYYIHWVRQAPGQGLEWMGIINPSGGSTTYPQNFQGRLTMTRDTSTSTVYMELSSLRSEDTAMYYCARGWSGYDPGDFWGQGTLVTVSSTSGQAGQHHHHHHGAYPYDVPDYAS
notes: also called EXT017-5; EXT017-5 scFv phage clone
Median:FITC-A [1]: 149
binding result [2]: no binding
Median:FITC-A [3]: 142
Median:FITC-A [4]: 2050
Median:FITC-A [5]: 2460
Median:FITC-A [16]: 129

B4: (FoxP4)_#5 (scFv)
scFv (VL-linker-VH-His/HA tag): QSVLTQPPSVSVAPGKTAKITCGGDNIGSKTVHWYQQKPGQAPALLIYYDSDRPSGIPERFSGSNSGNTATLSISRVEAGDEAGYFCQVWDGSSDHVIFGGGTKLTVLGSRGGGGSGGGGSGGGGSLEMAQMQLVQSGGGVVQPGRSLRLSCAASGFTFSSYAMHWVRQAPGKGLEWVAVISYDGSNKYYADSVKGRFTISRDNSKNTLYLQMNSLRAEDTAVYYCARDRHDYVMDVWGKGTTVTVSSTSGQAGQHHHHHHGAYPYDVPDYAS
notes: also called EXT018-5; EXT018-05 scFv phage clone
Median:FITC-A [17]: 143
Median:FITC-A [18]: 155
binding result [19]: no binding

B5: (FoxP4)_#4 (scFv)
scFv (VL-linker-VH-His/HA tag): QSVLTQPPSVSGAPGQRVTISCTGSNSNIGADFDVHWYQQLPGTAPKLLIYGNNNRPSGVPDRFSGSKSDTSASLAITGLQAEDEADYYCQSYDISLNGYVFGTGTKVTVLGSRGGGGSGGGGSGGGGSLEMAQVQLQQWGAGLLKPSETLSLTCAVSGGSFSDYYWSWIRQPPGKGLEWIGEITHTGSTNYNPSLKSRVTISVDTSKNHFSLNLTSVTAADTAVYYCARSNGFYYDTWGQGTLVTVSSTSGQAGQHHHHHHGAYPYDVPDYAS
notes: also called EXT018-4; EXT018-04 scFv phage clone
Median:FITC-A [17]: 148
Median:FITC-A [18]: 155
binding result [19]: no binding
